Data published in US20240336672A1 (INSTITUT PASTEUR, published 2024).
Substitutions are numbered along the chain they refer to.

B1: Cv2.3235 (recombinant human IgG1) (antibody, V domains shown)
VH: EVQLVESGGGLIQPGGSLRLSCAASGFTVSRNYMSWVRQAPGKGLEWVSVIYSGGSTFYADSVKGRFTISRDNSKNTLYLQMNSLRAEDTAVYYCARDGDYYGMDVWGQGTTVTVSS
VL: DIQMTQSPSFLSASVGDRVTITCRASQGISSFLAWYQQKPGKAPKLLIYGASTLQSGVTSRFSGSGSGTEFTLTISSLQPEDFATYYCQRLDSYPPITFGQGTRLEIKR
B2: Cv2.5213 (recombinant human IgG1) (antibody, V domains shown)
VH: B1 VH with R31S, V50L, F58Y, G99L, D100N, T111A
VL: DIQMTQSPSSLSASVGDRVTITCRASQGISSYLAWYQQKPGKAPKLLIYAASTLQSGVPSRFSGSGSGTDFTLTISSLQPEDFATYYCQQLDSYSPFTFGPGTKVDIKR
B3: Cv2.3194 (recombinant human IgG1) (antibody, V domains shown)
VH: B1 VH with F27I, S30T, R31S, S53P, G99L, D100V, Y101V
VL: EIVLTQSPGTLSLSPGERATLSCRASQSVSSSYLAWYQQKPGQAPRLLIYGASSRATGIPGRFSGSGSGTDFTLTISRLEPEDFAIYYCQQGVTFGGGTKVEIKR
B4: ADG-2 (antibody, V domains shown)
VH: EVQLVESGGGLVKPGGSLRLSCAASGFTFSSYYMNWVRQAPGKGLEWVSSISEDGYSTYYPDSLKGRFTISRDSAKNSLYLQMNSLRADDTAVYYCARDFSGHTAWAGTGFEYWGQGTLVTVSS
VL: QSVLTQPPSVSGAPGQRITISCTGSSSNIGAGYDVHWYQQLPGTAPKLLIYGSSSRNSGVPDRFSGSKSGTSASLAITGLQAEDEADYYCQSYDSSLSVLYTFGTGTKVTVL
B5: Adintrevimab (antibody, V domains shown)
VH: B4 VH
VL: B4 VL
B6: Cv2.1169 (recombinant human IgG1) (antibody)
heavy: QVQLVQSGPEVKKPGTSVKVSCKASGFTFTTSAVQWVRQARGQRLEWIGWIVVGSGNTNYAQKFQERVTITRDMSTTTAYMELSSLRSEDTAVYYCAAPYCSGGTCLDGFDIWGQGTMVTVSSASTKGPSVFPLAPSSKSTSGGTAALGCLVKDYFPEPVTVSWNSGALTSGVHTFPAVLQSSGLYSLSSVVTVPSSSLGTQTYICNVNHKPSNTKVDKKVEPKSCDKTHTCPPCPAPELLGGPSVFLFPPKPKDTLMISRTPEVTCVVVDVSHEDPEVKFNWYVDGVEVHNAKTKPREEQYNSTYRVVSVLTVLHQDWLNGKEYKCKVSNKALPAPIEKTISKAKQPREPQVYTLPPSRDELTKNQVSLTCLVKGFYPSDIAVEWESNGQPENNYKTTPPVLDSDGSFFLYSKLTVDKSRWQQGNVFSCSVMHEALHNHYTQKSLSLSPGK
light: not shown
notes: also called Cv2.1169 IgG
B7: COV2-2196 (parental IgG1 version) (antibody, V domains shown)
VH: QMQLVQSGPEVKKPGTSVKVSCKASGFTFMSSAVQWVRQARGQRLEWIGWIVIGSGNTNYAQKFQERVTITRDMSTSTAYMELSSLRSEDTAVYYCAAPYCSSISCNDGFDIWGQGTMVTVSS
VL: not shown
B8: TIX (antibody, V domains shown)
VH: B7 VH
VL: not shown
notes: also called Tixagevimab
B9: Cv2.5179 (recombinant human IgG1) (antibody, V domains shown)
VH: B7 VH with M2V, M30T, I53V, Y100H, I104T, N107Y, G109A
VL: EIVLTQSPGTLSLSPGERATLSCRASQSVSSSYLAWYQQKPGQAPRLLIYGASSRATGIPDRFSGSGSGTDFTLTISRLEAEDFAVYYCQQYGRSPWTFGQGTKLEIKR
notes: also called Cv2.5179 IgG
B10: Cv2.1353 (recombinant human IgG1) (antibody, V domains shown)
VH: EVQLVESGGGLVQPGGSLRLSCAASGVTVSSNYMNWVRQAPGKGLEWVSVIYSGGSTFYADSVKGRFIISRDNSKNTLYLQMNSLKTEDTAVYYCARDLGPMGFDIWGQGTMVTVSS
VL: B2 VL with S10F, D70E, D92N, Y94D, S95P, F97V

Experiments:
[1] = target: T1, SARS-CoV-2 spike, Wuhan strain, on virus or pseudotyped particles (SARS-CoV-2, UniProt P0DTC2 14-1273); assay: cell-based or functional assay
[2] = target: T2, SARS-CoV-2 S1 domain, Wuhan (SARS-CoV-2, UniProt P0DTC2 16-681); assay: SPR (Biacore), antibody immobilised
[3] = target: T2, SARS-CoV-2 S1 domain, Wuhan; assay: ELISA, coated antigen; note: test concentration or dose not given here
[4] = target: T2, SARS-CoV-2 S1 domain, Wuhan; assay: ELISA
[5] = target: T1, SARS-CoV-2 spike, Wuhan strain, on …; assay: cell-based or functional assay; remark: listed apart in the source
[6] = target: T2, SARS-CoV-2 S1 domain, Wuhan; assay: SPR (Biacore), IgG immobilized, viral protein as analyte
[7] = target: T2, SARS-CoV-2 S1 domain, Wuhan; assay: SPR (Biacore), antibody coupled to CM5 chip, viral protein as analyte
[8] = target: T2, SARS-CoV-2 S1 domain, Wuhan; assay: ELISA; design: unit not given beside the values
[9] = target: SARS-CoV-2 RBD domain, Wuhan (SARS-CoV-2); assay: ELISA; design: unit not given beside the values
[10] = target: SARS-CoV-2 RBD domain, Wuhan (SARS-CoV-2); assay: RBD-ACE2 competition ELISA
[11] = target: SARS-CoV-2 RBD domain, Wuhan (SARS-CoV-2); assay: RBD-ACE2 competition ELISA; design: unit not given beside the values
Throughout, for OD405nm: test concentration or dose not given here.
Throughout, for PseudoNEUT (%): test concentration or dose not given here.
Throughout, for S-FuseNEUT (%): test concentration or dose not given here.

Row | Binder | PseudoNEUT (%) [1] [%] | S-FuseNEUT (%) [1] [%] | Kd [2] [nM] | ELISA OD [3] [OD] | OD405nm [4] | also measured
1 | B1 | 100 | 100 | 18.9 | 3.9 |  | 
2 | B2 | 100 | 96 | 520 | 3.5 |  | 
3 | B3 | 100 | 100 |  | 3.7 | 3.4 | Pseudoneutralization IC50 [5]: 18.9 ng/mL; Pseudoneutralization IC90 [5]: 241 ng/mL; S-Fuse neutralization IC50 [5]: 3 ng/mL; S-Fuse neutralization IC90 [5]: 9.8 ng/mL; Kd [6]: 1.2 nM; Kd [7]: < 0.001 nM
4 | B4 |  |  |  |  |  | AUC [8]: 3
5 | B5 |  |  |  |  | 3.3 | 
6 | B6 | 100 | 95 |  | 3.5 | 3.3 | Pseudoneutralization IC50 [5]: 3 ng/mL; Pseudoneutralization IC90 [5]: 12.4 ng/mL; S-Fuse neutralization IC50 [5]: 1.5 ng/mL; S-Fuse neutralization IC90 [5]: 3.5 ng/mL; Kd [6]: 1.44 nM; koff [6]: 0.000354 s⁻¹; kon [6]: 246000 M⁻¹ s⁻¹; Kd [7]: < 0.001 nM
7 | B7 |  |  |  |  |  | AUC [8]: 3
8 | B8 |  |  |  |  | 3.3 | 
9 | B9 |  |  |  |  |  | AUC (Binding) [9]: 11; IC50 (read off the curve) [10]: ~600 ng/mL; AUC (Blocking) [11]: 103
10 | B10 | 100 | 100 | 6 | 3.5 |  | 
